Measured values reported in the supplement of paper PMC7877785.
± gives the uncertainty stated by the source.

Assay: self-splicing fitness, log relative to wild type (ln ratio); higher = more splicing; Tetrahymena group I intron in knt gene, E. coli kanamycin selection, DiMSum; sequences stand for … in CUCUCU…GGAGGGAAAAGUUAUCAGGCAUGCACCUGGUAGCUAGUCUUUAAACCAAUAGAUUGCAUCGGUUUAAAAGGCAAGACCGUCAAAUUGCGGGAAAGGGGUCAACAGCCGUUCAGUACCAAGUCUCAGGGGAAACUUUGAGAUGGCCUUGCAAAGGGUAUGGUAAUAAGCUGACGGACAUGGUCCUAACCACGCAGCCAAGUCCUAAGUCAACAGAUCUUCUGUUGAUAUGGAUGCAGUUCACAGACUAAAUGUCGGUCGGGGAAGAUGUAUUCUUCUCAUAAGAUAUAGUCGGACCUCUCCUUAAUGGGAGCUAGCGGAUGAAGUGAUGCAACACUGGAGCCGCUGGGAACUAAUUUGUAUGCGAAAGUAUAUUGAUUAGUUUUGGAGUACUCGUGGUCG
Outline: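 Six replicate transformations of E. coli BL21(DE3) with a pET-22b(+) library were grown overnight at 37°C or 30°C. The library randomised all eight P1ex-region intron nucleotides, the intron lying in the knt kanamycin-resistance gene, and plates were LB agar with or without 25 μg/mL kanamycin plus 100 μg/mL carbenicillin, 50 μM IPTG and 0.2% rhamnose. Pooled colonies were amplicon-sequenced on an Illumina HiSeq 2500, and fitness is the DiMSum error-weighted combination of wild-type-normalised replicate fold changes, kanamycin versus none.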

Sequence	self-splicing fitness (ln) (30 °C)	self-splicing fitness (ln) (37 °C)
UUUCAGCAAUAUUACGCGUU	-2.13 ± 0.21	-0.852 ± 0.17
UUUCAGCAAUAUUACGGCCA	-1.3 ± 0.19	-0.656 ± 0.11
UUUCAGCAAUAUUACGGCUU	-1.39 ± 0.13	-0.047 ± 0.13
UUUCAGCAAUAUUACGGUUG	-1.62 ± 0.091	-1.1 ± 0.12
UUUCAGCAAUAUUACGUGUG	-0.986 ± 0.067	-0.142 ± 0.075
UUUCAGCAAUAUUACGUUAC	-4.82 ± 0.28	-2.66 ± 0.16
UUUCAGCAAUAUUACGUUCA	-1.04 ± 0.13	-0.407 ± 0.15
UUUCAGCAAUAUUACGUUGG	-4.07 ± 0.18	-2.52 ± 0.2
UUUCAGCAAUAUUACGUUUG	-1.91 ± 0.086	-1.12 ± 0.1
UUUGAGCAAUAUUACGAGAG	-2.2 ± 0.32	
UUUGAGCAAUAUUACGAGGU	-4.2 ± 0.46	-3.66 ± 0.46
UUUGAGCAAUAUUACGAGUU		-1.87 ± 0.42
UUUGAGCAAUAUUACGAUCA	-2.12 ± 0.24	-1.28 ± 0.25
UUUGAGCAAUAUUACGCAAG	-3.09 ± 0.34	-1.51 ± 0.23
UUUGAGCAAUAUUACGCGUC	-2.03 ± 0.22	-2.49 ± 0.26
UUUGAGCAAUAUUACGCGUG	-2.33 ± 0.14	-0.742 ± 0.12
UUUGAGCAAUAUUACGGAAG		-1.41 ± 0.43
UUUGAGCAAUAUUACGGAUA	-3.12 ± 0.43	-2.36 ± 0.45
UUUGAGCAAUAUUACGGCAC	-2.87 ± 0.41	-2.56 ± 0.31
UUUGAGCAAUAUUACGGGCG	-3.15 ± 0.42	-2.16 ± 0.43
UUUGAGCAAUAUUACGGGCU	-2.89 ± 0.34	-2.86 ± 0.41
UUUGAGCAAUAUUACGGGUC		-3.77 ± 0.46

Sequence	self-splicing fitness (ln) (30 °C)	self-splicing fitness (ln) (37 °C)
UUUGAGCAAUAUUACGUACC	-2.34 ± 0.44	-2.3 ± 0.42
UUUGAGCAAUAUUACGUAUG	-1.73 ± 0.16	-2.59 ± 0.24
UUUGAGCAAUAUUACGUCUG	-2.41 ± 0.24	-0.733 ± 0.21
UUUGAGCAAUAUUACGUGGG	-2.17 ± 0.47	-1.39 ± 0.3
UUUGAGCAAUAUUACGUGGU	-4.12 ± 0.33	-2.74 ± 0.38
UUUGAGCAAUAUUACGUUCC	-3.99 ± 0.39	
UUUGAGCAAUAUUACGUUCG	-4.2 ± 0.42	-1.18 ± 0.19
UUUGAGCAAUAUUACGUUGA		-1.92 ± 0.33
UUUGAGCAAUAUUACGUUGU	-2.68 ± 0.21	-2.46 ± 0.28
UUUUAGCAAUAUUACGACUC	-2.56 ± 0.46	
UUUUAGCAAUAUUACGAGGU	-2.89 ± 0.43	
UUUUAGCAAUAUUACGCAGG	-1.33 ± 0.12	-1.03 ± 0.16
UUUUAGCAAUAUUACGCGAA	-1.57 ± 0.28	-1.08 ± 0.39
UUUUAGCAAUAUUACGCGCC	-1.71 ± 0.29	-0.726 ± 0.28
UUUUAGCAAUAUUACGCGUA	-1.57 ± 0.13	-1.22 ± 0.12
UUUUAGCAAUAUUACGGCCC		-1.14 ± 0.42
UUUUAGCAAUAUUACGUAAC	-3.07 ± 0.31	-1.57 ± 0.38
UUUUAGCAAUAUUACGUCUU	-2.43 ± 0.18	-1.33 ± 0.19
UUUUAGCAAUAUUACGUGAC	-3.41 ± 0.28	-0.031 ± 0.22
UUUUAGCAAUAUUACGUGGG	-1.79 ± 0.2	-2.27 ± 0.27
UUUUAGCAAUAUUACGUUUA	-1.94 ± 0.22	-1.05 ± 0.16
